Target: T1, GST–Ubp3 (UBP3 cloned into pGEX4T, PEN253) (S. cerevisiae, UniProt Q01477 1-912)
T1 sequence (looked up): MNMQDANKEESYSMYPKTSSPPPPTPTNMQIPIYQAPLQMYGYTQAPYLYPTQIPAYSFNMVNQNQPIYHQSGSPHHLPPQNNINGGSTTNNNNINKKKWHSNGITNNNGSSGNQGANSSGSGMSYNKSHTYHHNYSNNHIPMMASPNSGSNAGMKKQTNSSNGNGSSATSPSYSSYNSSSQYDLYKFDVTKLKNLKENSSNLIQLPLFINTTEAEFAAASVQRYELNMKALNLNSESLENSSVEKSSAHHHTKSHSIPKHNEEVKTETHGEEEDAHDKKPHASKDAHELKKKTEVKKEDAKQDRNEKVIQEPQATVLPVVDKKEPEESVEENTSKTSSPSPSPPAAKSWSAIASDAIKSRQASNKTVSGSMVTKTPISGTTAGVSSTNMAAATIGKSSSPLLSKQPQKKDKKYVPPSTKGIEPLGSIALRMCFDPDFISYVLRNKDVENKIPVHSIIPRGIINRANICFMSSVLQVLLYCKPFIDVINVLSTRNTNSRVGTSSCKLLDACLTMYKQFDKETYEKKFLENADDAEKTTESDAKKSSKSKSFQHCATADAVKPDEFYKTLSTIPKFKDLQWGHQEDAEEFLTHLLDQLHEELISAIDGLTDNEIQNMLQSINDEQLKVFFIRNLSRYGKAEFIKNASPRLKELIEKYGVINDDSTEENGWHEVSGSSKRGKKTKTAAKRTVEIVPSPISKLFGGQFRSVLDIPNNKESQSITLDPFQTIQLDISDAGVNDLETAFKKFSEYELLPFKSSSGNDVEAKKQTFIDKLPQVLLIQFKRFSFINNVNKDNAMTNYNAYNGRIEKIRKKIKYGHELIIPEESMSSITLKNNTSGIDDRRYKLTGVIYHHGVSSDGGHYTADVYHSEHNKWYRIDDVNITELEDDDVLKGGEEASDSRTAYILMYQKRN
Assay: pull-down

binding result: binds
B1: His-tagged Hog1 (enzyme, S. cerevisiae, UniProt P32485 1-435, looked up)
chain: MTTNEEFIRTQIFGTVFEITNRYNDLNPVGMGAFGLVCSATDTLTSQPVAIKKIMKPFSTAVLAKRTYRELKLLKHLRHENLICLQDIFLSPLEDIYFVTELQGTDLHRLLQTRPLEKQFVQYFLYQILRGLKYVHSAGVIHRDLKPSNILINENCDLKICDFGLARIQDPQMTGYVSTRYYRAPEIMLTWQKYDVEVDIWSAGCIFAEMIEGKPLFPGKDHVHQFSIITDLLGSPPKDVINTICSENTLKFVTSLPHRDPIPFSERFKTVEPDAVDLLEKMLVFDPKKRITAADALAHPYSAPYHDPTDEPVADAKFDWHFNDADLPVDTWRVMMYSEILDFHKIGGSDGQIDISATFDDQVAAATAAAAQAQAQAQAQVQLNMAAHSHNGAGTTGNDHSDIAGGNKVSDHVAANDTITDYGNQAIQYANEFQQ

From publication PMC3160652 (The EMBO Journal, 2011)
